Bridges are numbered along the chain shown (N, C = ends). Where no end group is shown, it is not given here. [ ]: non-standard residue; d: D form. The star is where a group is joined. Acetyl(2-(4-imidazolyl)) = O=C(Cc1c[nH]cn1)*; Aib = CC(C)(N)C(=O)O
T1: human GIP receptor (human, UniProt P48546 22-466)
T1 sequence (looked up): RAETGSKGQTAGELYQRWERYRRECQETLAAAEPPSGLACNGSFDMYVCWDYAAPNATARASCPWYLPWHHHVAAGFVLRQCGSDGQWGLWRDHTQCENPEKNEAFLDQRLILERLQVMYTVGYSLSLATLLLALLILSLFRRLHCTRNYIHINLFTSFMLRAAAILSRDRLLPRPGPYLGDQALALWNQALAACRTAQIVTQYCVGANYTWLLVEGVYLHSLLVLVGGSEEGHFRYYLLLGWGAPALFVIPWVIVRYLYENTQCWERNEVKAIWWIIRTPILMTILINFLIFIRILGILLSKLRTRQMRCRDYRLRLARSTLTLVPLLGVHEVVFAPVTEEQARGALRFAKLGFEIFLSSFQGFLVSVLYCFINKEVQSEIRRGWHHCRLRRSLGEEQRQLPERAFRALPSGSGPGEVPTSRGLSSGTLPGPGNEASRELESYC

B1: triple agonist of SEQ ID NO: 40 (peptide)
peptide: HXQGTFTSDKSKYLDERACQDFVQWLLDGGPSSGAPPPS
HELM: PEPTIDE1{H.[Aib].Q.G.T.F.T.S.D.K.S.K.Y.L.D.E.R.A.C.Q.D.F.V.Q.W.L.L.D.G.G.P.S.S.G.A.P.P.P.S.[am]}$$$$V2.0; N-terminus assumed
SMILES: CC(C)C[C@H](NC(=O)[C@H](CC(C)C)NC(=O)[C@H](Cc1c[nH]c2ccccc12)NC(=O)[C@H](CCC(N)=O)NC(=O)[C@@H](NC(=O)[C@H](Cc1ccccc1)NC(=O)[C@H](CC(=O)O)NC(=O)[C@H](CCC(N)=O)NC(=O)[C@H](CS)NC(=O)[C@H](C)NC(=O)[C@H](CCCNC(=N)N)NC(=O)[C@H](CCC(=O)O)NC(=O)[C@H](CC(=O)O)NC(=O)[C@H](CC(C)C)NC(=O)[C@H](Cc1ccc(O)cc1)NC(=O)[C@H](CCCCN)NC(=O)[C@H](CO)NC(=O)[C@H](CCCCN)NC(=O)[C@H](CC(=O)O)NC(=O)[C@H](CO)NC(=O)[C@@H](NC(=O)[C@H](Cc1ccccc1)NC(=O)[C@@H](NC(=O)CNC(=O)[C@H](CCC(N)=O)NC(=O)C(C)(C)NC(=O)[C@@H](N)Cc1c[nH]cn1)[C@@H](C)O)[C@@H](C)O)C(C)C)C(=O)N[C@@H](CC(=O)O)C(=O)NCC(=O)NCC(=O)N1CCC[C@H]1C(=O)N[C@@H](CO)C(=O)N[C@@H](CO)C(=O)NCC(=O)N[C@@H](C)C(=O)N1CCC[C@H]1C(=O)N1CCC[C@H]1C(=O)N1CCC[C@H]1C(=O)N[C@@H](CO)C(N)=O
B2: triple agonist of SEQ ID NO: 41 (peptide)
peptide: HXQGTFTSDKSKYLDECAAQDFVQWLLDGGPSSGAPPPS
HELM: PEPTIDE1{H.[Aib].Q.G.T.F.T.S.D.K.S.K.Y.L.D.E.C.A.A.Q.D.F.V.Q.W.L.L.D.G.G.P.S.S.G.A.P.P.P.S.[am]}$$$$V2.0; N-terminus assumed
SMILES: CC(C)C[C@H](NC(=O)[C@H](CC(C)C)NC(=O)[C@H](Cc1c[nH]c2ccccc12)NC(=O)[C@H](CCC(N)=O)NC(=O)[C@@H](NC(=O)[C@H](Cc1ccccc1)NC(=O)[C@H](CC(=O)O)NC(=O)[C@H](CCC(N)=O)NC(=O)[C@H](C)NC(=O)[C@H](C)NC(=O)[C@H](CS)NC(=O)[C@H](CCC(=O)O)NC(=O)[C@H](CC(=O)O)NC(=O)[C@H](CC(C)C)NC(=O)[C@H](Cc1ccc(O)cc1)NC(=O)[C@H](CCCCN)NC(=O)[C@H](CO)NC(=O)[C@H](CCCCN)NC(=O)[C@H](CC(=O)O)NC(=O)[C@H](CO)NC(=O)[C@@H](NC(=O)[C@H](Cc1ccccc1)NC(=O)[C@@H](NC(=O)CNC(=O)[C@H](CCC(N)=O)NC(=O)C(C)(C)NC(=O)[C@@H](N)Cc1c[nH]cn1)[C@@H](C)O)[C@@H](C)O)C(C)C)C(=O)N[C@@H](CC(=O)O)C(=O)NCC(=O)NCC(=O)N1CCC[C@H]1C(=O)N[C@@H](CO)C(=O)N[C@@H](CO)C(=O)NCC(=O)N[C@@H](C)C(=O)N1CCC[C@H]1C(=O)N1CCC[C@H]1C(=O)N1CCC[C@H]1C(=O)N[C@@H](CO)C(N)=O
B3: triple agonist of SEQ ID NO: 6 (peptide)
peptide: HXQGTFTSDVSSYLDGQAAKEFVAWLLKGC
HELM: PEPTIDE1{H.[Aib].Q.G.T.F.T.S.D.V.S.S.Y.L.D.G.Q.A.A.K.E.F.V.A.W.L.L.K.G.C.[am]}$$$$V2.0; N-terminus assumed
SMILES: CC(C)C[C@H](NC(=O)[C@H](Cc1c[nH]c2ccccc12)NC(=O)[C@H](C)NC(=O)[C@@H](NC(=O)[C@H](Cc1ccccc1)NC(=O)[C@H](CCC(=O)O)NC(=O)[C@H](CCCCN)NC(=O)[C@H](C)NC(=O)[C@H](C)NC(=O)[C@H](CCC(N)=O)NC(=O)CNC(=O)[C@H](CC(=O)O)NC(=O)[C@H](CC(C)C)NC(=O)[C@H](Cc1ccc(O)cc1)NC(=O)[C@H](CO)NC(=O)[C@H](CO)NC(=O)[C@@H](NC(=O)[C@H](CC(=O)O)NC(=O)[C@H](CO)NC(=O)[C@@H](NC(=O)[C@H](Cc1ccccc1)NC(=O)[C@@H](NC(=O)CNC(=O)[C@H](CCC(N)=O)NC(=O)C(C)(C)NC(=O)[C@@H](N)Cc1c[nH]cn1)[C@@H](C)O)[C@@H](C)O)C(C)C)C(C)C)C(=O)N[C@@H](CC(C)C)C(=O)N[C@@H](CCCCN)C(=O)NCC(=O)N[C@@H](CS)C(N)=O

Tests used:
Assay in all cases: cell-based or functional assay
human GLP-1 receptor = human GLP-1 receptor (human, UniProt P43220 24-463)
human GCG receptor = human GCG receptor (human, UniProt P47871 26-477)
human GIP receptor = target: T1, human GIP receptor

Chain of human GCG receptor (P47871 26-477): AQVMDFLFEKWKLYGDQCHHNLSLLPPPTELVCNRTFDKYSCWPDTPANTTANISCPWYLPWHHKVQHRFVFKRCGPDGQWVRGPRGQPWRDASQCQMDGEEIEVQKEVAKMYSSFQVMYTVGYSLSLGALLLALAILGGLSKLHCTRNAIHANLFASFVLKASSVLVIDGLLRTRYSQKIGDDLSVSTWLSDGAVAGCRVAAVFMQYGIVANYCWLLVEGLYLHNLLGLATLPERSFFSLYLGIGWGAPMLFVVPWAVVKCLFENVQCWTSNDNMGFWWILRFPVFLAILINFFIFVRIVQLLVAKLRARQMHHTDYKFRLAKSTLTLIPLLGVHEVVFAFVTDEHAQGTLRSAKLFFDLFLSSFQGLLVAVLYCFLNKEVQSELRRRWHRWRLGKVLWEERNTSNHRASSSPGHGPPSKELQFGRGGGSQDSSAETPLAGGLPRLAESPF

Binder | in vitro Activity Compared to Native Peptide (%), vs GLP-1 (human GLP-1 receptor) | in vitro Activity Compared to Native Peptide (%), vs Glucagon (human GCG receptor) | in vitro Activity Compared to Native Peptide (%), vs GIP (human GIP receptor)
B1 | 75.2% | < 0.1% | < 0.1%
B2 | 34.3% | < 0.1% | < 0.1%
[Acetyl(2-(4-imidazolyl))][Aib]QGTFTSDYSICMDEIHQKDFVNWLLNTK (bridge 16-20; not fully specified (C-terminus)) [triple agonist of SEQ ID NO: 49] | 29.8% | < 0.1% | 3.3%
Y[Aib]QGTFTSDYSKYLDEKRAKEFVQWLLDHHCSSGQPPPS-NH2 (bridge 16-20) [triple agonist of SEQ ID NO: 43] | 12.6% | 88.4% | 3.7%
HGQGTFTSDCSKQLDGQAAQEFVAWLLAGGPSSGAPPPS (not fully specified (C-terminus)) [triple agonist of SEQ ID NO: 44] | 1.3% | < 0.1% | < 0.1%
HGQGTFTSDCSKYMDGQAAQDFVAWLLAGGPSSGAPPPS (not fully specified (C-terminus)) [triple agonist of SEQ ID NO: 45] | 6.6% | < 0.1% | < 0.1%
HGQGTFTSDCSKYLDEQHAQEFVAWLLAGGPSSGAPPPS (not fully specified (C-terminus)) [triple agonist of SEQ ID NO: 46] | 1.4% | < 0.1% | < 0.1%
HGQGTFTSDCSKYLDGQRAQEFVAWLLAGGPSSGAPPPS (not fully specified (C-terminus)) [triple agonist of SEQ ID NO: 47] | 2.4% | < 0.1% | < 0.1%
HGQGTFTSDCSKYLDGQRAQDFVNWLLAGGPSSGAPPPS (not fully specified (C-terminus)) [triple agonist of SEQ ID NO: 48] | 1.5% | < 0.1% | < 0.1%
H[Aib]QGTFTSDYSKYLDEKRQKEFVQWLLDTC (bridge 16-20; not fully specified (C-terminus)) [triple agonist of SEQ ID NO: 52] | 44.1% | 7.5% | 0.3%
H[Aib]QGTFTSDYSKYLDEKRQKEFVQWLLNTC (bridge 16-20; not fully specified (C-terminus)) [triple agonist of SEQ ID NO: 51] | 14.4% | 2% | 0.1%
H[Aib]EGTFTSDYSIAMDEIHQKDFVNWLLAQC (bridge 16-20; not fully specified (C-terminus)) [triple agonist of SEQ ID NO: 53] | 161% | 8.4% | 1.3%
H[Aib]QGTFTSDYSKYLDEKRAKEFVQWLLDHHPSSGQPPPSC-NH2 (bridge 16-20) [triple agonist of SEQ ID NO: 50] | 67.4% | 50.5% | 2.7%
H[Aib]QGTFTSDVSSYLLGQQQKEFIAWLVKGGGPSSGAPPPSC-NH2 [triple agonist of SEQ ID NO: 5] | 42.1% | < 0.1% | < 0.1%
H[Aib]QGTFTSDYSIAMDEIHQKDFVNWLLAQC (bridge 16-20; not fully specified (C-terminus)) [triple agonist of SEQ ID NO: 55] | 27.1% | 0.7% | 2.4%
Y[Aib]QGTFTSDYSKYLDEKRAKEFVQWLLDHHPSSGQPPPSC-NH2 (bridge 16-20) [triple agonist of SEQ ID NO: 42] | 33.9% | 206% | 7.8%
B3 | 17% | < 0.1% | < 0.1%
H[Aib]EGTFTSDYSIAMDEIHQKDFVDWLLAEC (bridge 16-20; not fully specified (C-terminus)) [triple agonist of SEQ ID NO: 54] | 30.6% | 1.4% | 0.1%
